Test results published in US8597922B2, “Methods and compositions for producing olefins” (LS9, Inc., priority 2007, dated 2013).
Changes are numbered by the printed parent chain. Numbers in names are those of the source. Like-named read-outs stand apart in the source and are kept apart here.

B1: orf_KRH21570: ORF880 homolog P450 enzyme from Kokuria rhizophila DC2201, YP_001856010 (protein, listed as Kokuria rhizophila)
chain: MTSPFGQTRSEQGPSLLRSGYLFASRARRRAGLSSDSGCPVRMPLLGKQTVLVRGEEGVKLFYDTSRVRRDGAMPGVVQGPLFGAGAVHGLDGEAHRVRKNQLADMAYEDERVAAYKPFVAEELENLVARWKDGDNVYDSTAIAFGRASFRWAGLQWGVPEMDRWARRMSRLLDTFGRPATHLVSRLDRIALDRRFAALIKDVRAGKVNAPEDSVLAHMAALVDEHGELVDAKTAGIELQNLTRPNVAVARFAAFAATALVEHPEWVERIRAASEQRGGTLLDVPEAVAFAQEVRRVYPFVPMLPAEVTQDTEIQGCPVHKGERVVLDILGTNTDPTSWDRAATFDPERFLGVEDAEAITTFIPQGGAEVRTGHRCPGEKIAVTSLSAAVVALCRPEVQLPGDQDDLTFSWTHMLTRPVTGVRVRTTR
B2: orf_Mpop1292: ORF880 homolog P450 enzyme from Methylobacterium populi, ZP_02200540 (protein, listed as Methylobacterium populi)
chain: MPAAIATHRFRKARTLPREPAPDSTLALLREGYGFIRNRCRRHDSDLFAARLLLSPVICMSGAEAARHFYDGHRFTRRHALPPTSFALIQDHGSVMVLDGAAHLARKAMFLSLVGEEALQRLAGLAERHWREAVSGWARKDTVVLLDEAHRVLTAAVCEWVGLPLGPTEVDARAREFAAMIDGTGAVGPRNWRGHLYRARTERWVRKVIDEIRSGRRDVPPGAARTIAEHQDADGQRLDRTVAGVELINVLRPTVANARYIVFAAMALHDHPHQRAALADGGEAAERFTDEVRRFYPFIPFIGGRVRAPFHFGGHDFREGEWVLMDLYGTNRDPRLWHEPERFDPDRFARETIDPFNMVSHGAGSARDGHRCPGEGITRILLRTLSRQLAATRYTVPPQDLTLDLAHVPARPRSGFVMRAVHAP
B3: CYP152A1: Bacillus subtilis fatty acid hydroxylase, NP_388092 (protein, listed as Bacillus subtilis)
chain: MNEQIPHDKSLDNSLTLLKEGYLFIKNRTERYNSDLFQARLLGKNFICMTGAEAAKVFYDTDRFQRQNALPKRVQKSLFGVNAIQGMDGSAHIHRKMLFLSLMTPPHQKRLAELMTEEWKAAVTRWEKADEVVLFEEAKEILCRVACYWAGVPLKETEVKERADDFIDMVDAFGAVGPRHWKGRRARPRAEEWIEVMIEDARAGLLKTTSGTALHEMAFHTQEDGSQLDSRMAAIELINVLRPIVAISYFLVFSALALHEHPKYKEWLRSGNSREREMFVQEVRRYYPFGPFLGALVKKDFVWNNCEFKKGTSVLLDLYGTNHDPRLWDHPDEFRPERFAEREENLFDMIPQGGGHAEKGHRCPGEGITIEVMKASLDFLVHQIEYDVPEQSLHYSLARMPSLPESGFVMSGIRRKS
B4: CYP152A1 Q85H (protein, UniProt O31440 1-417, looked up, variant Q85H)
Fatty-acid peroxygenase: B3 chain with Q85H

Legend:
E. coli C41 ΔfadE = assay type: cell-based
Experimental: Genomic DNA encoding C. efficiens YS-134 (DSMZ44549) orfCE2459 (SEQ ID NO:6) was cloned into the NcoI and EcoRI sites of vector OP-80 (pCL1920 derivative) under the control of the Ptrc promoter. The resulting construct was then transformed into E. coli C41 ΔfadE.
The cells were grown at 37° C. in M9 minimal media supplemented with 20 μg/mL uracil, 1% glucose (w/v), and 100 μg/mL spectinomycin. When the culture reached an OD600 of 0.8 to 1.0, it was induced with 1 mM IPTG supplemented with 0.5 mM delta-aminolaevulinic acid (heme biosynthesis precursor), and 0.05% stearic acid (as a substrate for orfCE2459). The temperature was shifted to 25° C. and cells were allowed to grow for an additional 18-20 h Cells from 1 mL of culture were resuspended with 100 μL of methanol, sonicated for 30 min, and extracted with 300 μL of ethyl acetate. After vortexing for 15 min, 300 μL of water was added, and the mixture was vortexed for another 15 min before centrifugation at 15,000 rpm for 10 min. The solvent layer was analyzed by GC-MS.
Genomic DNA encoding Kokuria rhizophila DC2201 orfKRH21570 (SEQ ID NO:8), which was codon optimized (SEQ ID NO:9) for expression in E. coli, was cloned into the NdeI and XhoI sites of vector OP-183 (pACYC177 derivative) under the control of the Ptrc promoter. The resulting construct was then transformed into E. coli C41 ΔfadE. The cells were grown, extracted, and analyzed as in described in Example 7.
The genomic DNA encoding Bacillus subtilis fatty acid hydroxylase, Cyp152A1 (SEQ ID NO:13) or P450Bsβ, was cloned into the NdeI and XhoI sites of vector OP-183 (pACYC177 derivative) under the control of the Ptrc promoter. The construct was used as a template to introduce a mutation at position 85 changing the Glu to His using the following primer: GTTAATGCGATTCAcGGAATGGATGGC. The resulting constructs were then transformed into E. coli C41 (ΔfadE). The cells were grown at 37° C. in M9 minimal media supplemented with 20 μg/mL uracil, 1% glucose (w/v), and 100 μg/mL carbenicillin. When the culture reached OD600 of 0.8-1.0, it was induced with 1 mM IPTG; supplemented with 0.5 mM delta-aminolaevulinic acid (heme biosynthesis precursor) and 0.05% stearic acid (as a substrate for Bsb). The temperature was shifted down to 25° C. and cells were allowed to grow for an additional 18-20 h. Cells from 1 mL of culture was resuspended with 100 μL of methanol, sonicated for 30 min, and extracted with 300 μL of ethyl acetate. After vortexing the extract for 15 min, 300 μL of water was added, vortexed for another 15 minutes before centrifugation at 15,000 rpm for 10 minutes. The solvent layer was analyzed by GC-MS.

[1] = In vitro α-olefin synthesis by purified His-tagged protein with hydrogen peroxide; assay type: biochemical; details: 200 μL purified protein, 200 μM hydrogen peroxide, 200 μM potassium hexadecanoate, room temperature overnight
Experimental: E. coli C41 DE3 (ΔfadE) cells were transformed with pET15b-orfKRH21570 using routine transformation techniques. Protein expression was carried out by first inoculating 5 mL of LB broth supplemented with 100 mg/L carbenicillin with a colony of the E. coli strain which was followed by shaking the cells overnight at 37° C. to produce a starter culture. This starter culture was used to inoculate 0.5 L of LB media supplemented with 100 mg/L of carbenicillin. The culture was shaken at 37° C. until an OD600 value of 0.6 was reached, after which it was induced with 1 mM IPTG and 0.5 mM delta-aminolaevulinic acid. The culture was then shaken at 25° C. for approximately 18 h. The protein was purified as described in Example 12.
To assay the activity of ORF_KRH21570, 200 μL of purified protein was incubated with 200 μM of hydrogen peroxide and 200 μM of potassium hexadecanoate. As a negative control, the same reaction was conducted, but without the addition of either purified protein (100 mM sodium phosphate pH 7.2 was used in its place) or free fatty acid. The reactions were performed in duplicates and incubated at room temperature overnight. […] Trimethylanilinium hydroxide was added to the ethyl acetate layer at a 1:1 ratio and the extracts analyzed by GC/MS using the MAR_splitless_short method. […]

[2] = Specific activity of α-olefin and α/β-hydroxy fatty acid formation by purified enzymes; assay type: biochemical; details: for specific activity for 1-pentadecene formation: 500 μM H2O2, 200 μM potassium hexadecanoate, pH 7.2, room temperature, comparison between enzymes
Experimental: The specific activity of α-olefin formation as well as α-(2) and β-(3)hydroxy fatty acid formation were determined for ORF880, CYP152A1, and CYP152A1 Q85H (see Examples 12 and 16). An E. coli BL21 strain (DE3) (Invitrogen) was transformed with either pET15b-orf 880, pET15b-cyp152A1, and pET15b-cyp152A1 Q85H using routine chemical transformation techniques. Protein expression was carried out by first inoculating a colony of the E. coli strain in 5 mL of LB media supplemented with 100 mg/L of carbenicillin and shaken overnight at 37° C. to produce a starter culture. This starter culture was used to inoculate 0.5 L of LB media supplemented with 100 mg/L of carbenicillin. The culture was shaken at 37° C. until an OD600 value of 0.6 was reached. The culture was placed on ice for 10 min before IPTG was added to a final concentration of 250 μM. The culture was shaken at 25° C. for approximately 18 h, and then centrifuged at 3,700 rpm for 20 min at 4° C. The pellet was then resuspended in 10 mL of buffer containing 100 mM sodium phosphate buffer at pH 7.2 supplemented with Bacterial ProteaseArrest (GBiosciences). The cells were then sonicated at 12 W on ice for 9 sec with 1.5 sec of sonication followed by 1.5 sec of rest. This procedure was repeated 5 times with one min intervals between each sonication cycle. The cell free extract was centrifuged at 10,000 rpm for 30 min at 4° C. 5 mL of Ni-NTA (Qiagen) was added to the supernatant, and the mixture was gently stirred at 4° C. The slurry was passed over a column removing the resin from the lysate. The resin was then washed with 30 mL of buffer containing 100 mM sodium phosphate buffer at pH 7.2 plus 30 mM imidazole. Finally, the protein was eluted with 15 mL of 100 mM sodium phosphate buffer at pH 7.2 plus 250 mM imidazole. The protein solution was dialyzed with 200 volumes of 100 mM sodium phosphate buffer at pH 7.2 with 20% glycerol. Protein concentration was determined using the Bradford assay (Biorad). 578 μg/mL of ORF880, 865 μg/mL of CYP152A1, and 653 μg/mL of CYP152A1 Q85H protein was obtained.
To determine the specific activity with potassium hexadecanoate, the following reactions were set-up where each time point consisted of 500 μL. Each reaction contained of 500 μM H2O2, 200 μM of potassium hexadecanoate, 100 mM sodium phosphate buffer at pH 7.2, and protein at the following concentrations: ORF880-0.23 or 0.46 μM; CYP152A1-8.65, 17.3, or 34.6 μM; CYP152A1 Q85H-6.53, 13.06, or 26.12 μM. The reactions were carried out at room temperature and time points were taken at 0, 1, 3, 5, 7, 10, 14, and 20 minutes. Reactions were quenched with 50 μL of 12 M HCl and then extracted with 200 μL of ethyl acetate. 50 μL of this extract was then reacted with 50 μL N,O-Bis(trimethylsilyl)trifluoroacetamide with trimethyl-chlorosilane (Aldrich). Samples were analyzed using GC/MS using the following parameters: run time: 20 min; column: HP-5-MS Part No. 190915-433E (length of 30 meters; I.D.: 0.25 mm narrowbore; film: 0.25 μM); inject: 1 μL Agilent 6850 inlet; inlet: 300° C. splitless; carrier gas: helium; flow: 1.3 mL/min; oven temp: 100° C. hold 5 min, 320° C. at 20° C./min, 320° C. hold 5 min; det: Agilent 5975B VL MSD; det. temp: 300° C.; scan: 50-500 M/Z. Calibration curves were generated using 1-pentadecene, α(2)-hydroxyhexadecanoic acid, and β(3)-hydroxyhexadecanoic acid dissolved in ethyl acetate and derivatized as described herein.
Based upon this analysis, product formation was determined to be linear within the first three minutes. The specific activities for each enzyme concentration in the linear range were averaged for a given reaction (e.g., decarboxylation, α-hydroxylation, or β-hydroxylation). FIG. 21 summarizes the results. The specific activity for 1-pentadecene formation was similar for ORF880 and CYP152A1. Mutating the glutamine 85 residue to a histidine increased the specific activity of 1-pentadecene formation (i.e., increased fatty acid decarboxylase activity). […]

[3] = with 0.05% stearic acid feeding
[4] = compared with the wild-type version of CYP152A1

Molecule | α-olefin produced (E. coli C41 ΔfadE; [3]) | α-olefin produced (E. coli C41 ΔfadE; without stearic acid feeding, grown on glucose) | α-olefin formed from hexadecanoic acid [1] | specific activity for 1-pentadecene formation [2] | rate of α-hydroxyhexadecanoic acid formation [2, 4] | rate of β-hydroxyhexadecanoic acid formation [2, 4]
B1 | 1-heptadecene | 1-heptadecadiene | 1-pentadecene | – | – | –
B2 | – | – | 1-pentadecene | – | – | –
B3 | 1-heptadecene | – | – | similar | – | –
B4 | capable of carrying out this reaction | – | – | increased | lowered | increased
